Results as given in publication PMC10926635, “Membrane-associated RING-CH 7 inhibits stem-like capacities of bladder cancer cells by interacting with nucleotide-binding oligomerization domain containing 1” (Cell & Bioscience, 2024).

Biological target: T1, HA-NOD1, purified protein (UniProt Q9Y239-1 1-953)
T1 construct: also called purified NOD1 protein; source: purified by Hangzhou Jingjie Biotechnology Co., Ltd
T1 sequence (looked up): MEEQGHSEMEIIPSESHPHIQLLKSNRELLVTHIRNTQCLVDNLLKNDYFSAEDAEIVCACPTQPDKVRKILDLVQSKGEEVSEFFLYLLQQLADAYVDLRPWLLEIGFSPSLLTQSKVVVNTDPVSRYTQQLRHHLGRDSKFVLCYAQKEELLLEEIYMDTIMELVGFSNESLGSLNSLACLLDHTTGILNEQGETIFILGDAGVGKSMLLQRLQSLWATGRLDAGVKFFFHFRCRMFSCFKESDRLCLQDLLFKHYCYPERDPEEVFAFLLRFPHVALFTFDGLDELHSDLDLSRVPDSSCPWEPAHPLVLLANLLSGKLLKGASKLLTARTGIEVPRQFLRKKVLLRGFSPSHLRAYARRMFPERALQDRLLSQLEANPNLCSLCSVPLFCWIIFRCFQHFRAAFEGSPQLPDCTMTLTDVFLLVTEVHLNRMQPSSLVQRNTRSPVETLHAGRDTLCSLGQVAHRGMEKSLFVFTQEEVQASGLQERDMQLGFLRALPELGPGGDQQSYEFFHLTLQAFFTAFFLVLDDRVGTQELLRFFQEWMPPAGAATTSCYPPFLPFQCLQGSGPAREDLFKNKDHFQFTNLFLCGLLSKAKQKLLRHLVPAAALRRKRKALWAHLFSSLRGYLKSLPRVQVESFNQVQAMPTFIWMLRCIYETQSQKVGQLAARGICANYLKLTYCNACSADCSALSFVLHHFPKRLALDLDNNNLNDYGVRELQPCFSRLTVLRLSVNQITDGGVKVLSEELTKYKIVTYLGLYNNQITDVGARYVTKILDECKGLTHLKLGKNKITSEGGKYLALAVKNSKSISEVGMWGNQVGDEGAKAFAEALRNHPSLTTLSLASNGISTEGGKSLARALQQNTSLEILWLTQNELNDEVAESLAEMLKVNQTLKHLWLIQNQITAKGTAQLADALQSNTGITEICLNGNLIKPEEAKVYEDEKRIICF
Experiment: co-IP; purified Flag-MARCH7 and HA-NOD1 proteins mixed; co-IP as for the cell lysates
Conditions: both partners purified

B1: Flag-MARCH7-WT, purified protein (enzyme, UniProt Q9H992-1 1-704, looked up)
chain: MESKPSRIPRRISVQPSSSLSARMMSGSRGSSLNDTYHSRDSSFRLDSEYQSTSASASASPFQSAWYSESEITQGARSRSQNQQRDHDSKRPKLSCTNCTTSAGRNVGNGLNTLSDSSWRHSQVPRSSSMVLGSFGTDLMRERRDLERRTDSSISNLMDYSHRSGDFTTSSYVQDRVPSYSQGARPKENSMSTLQLNTSSTNHQLPSEHQTILSSRDSRNSLRSNFSSRESESSRSNTQPGFSYSSSRDEAPIISNSERVVSSQRPFQESSDNEGRRTTRRLLSRIASSMSSTFFSRRSSQDSLNTRSLNSENSYVSPRILTASQSRSNVPSASEVPDNRASEASQGFRFLRRRWGLSSLSHNHSSESDSENFNQESEGRNTGPWLSSSLRNRCTPLFSRRRREGRDESSRIPTSDTSSRSHIFRRESNEVVHLEAQNDPLGAAANRPQASAASSSATTGGSTSDSAQGGRNTGISGILPGSLFRFAVPPALGSNLTDNVMITVDIIPSGWNSADGKSDKTKSAPSRDPERLQKIKESLLLEDSEEEEGDLCRICQMAAASSSNLLIEPCKCTGSLQYVHQDCMKKWLQAKINSGSSLEAVTTCELCKEKLELNLEDFDIHELHRAHANEQAEYEFISSGLYLVVLLHLCEQSFSDMMGNTNEPSTRVRFINLARTLQAHMEDLETSEDDSEEDGDHNRTFDIA
notes: Membrane-associated RING-CH 7 (MARCH7); also called purified MARCH7 protein; source: purified by Hangzhou Jingjie Biotechnology Co., Ltd
B1: binds.
